Measured values as given in US20100081612A1 (GENERAL HOSPITAL, published 2010).
Where no end group is shown, it is not given here. [ ]: non-standard residue; d: D form. Nle = CCCC[C@H](N)C(=O)O

B1: PTH(1-31)NH2 Arg^20→Nle (peptide)
peptide: SVSEIQLMHNLGKHLNSME[Nle]VEWLRKKLQDV-NH2
modifications: N-terminus assumed
SMILES: CCCC[C@H](NC(=O)[C@H](CCC(=O)O)NC(=O)[C@H](CCSC)NC(=O)[C@H](CO)NC(=O)[C@H](CC(N)=O)NC(=O)[C@H](CC(C)C)NC(=O)[C@H](Cc1c[nH]cn1)NC(=O)[C@H](CCCCN)NC(=O)CNC(=O)[C@H](CC(C)C)NC(=O)[C@H](CC(N)=O)NC(=O)[C@H](Cc1c[nH]cn1)NC(=O)[C@H](CCSC)NC(=O)[C@H](CC(C)C)NC(=O)[C@H](CCC(N)=O)NC(=O)[C@@H](NC(=O)[C@H](CCC(=O)O)NC(=O)[C@H](CO)NC(=O)[C@@H](NC(=O)[C@@H](N)CO)C(C)C)[C@@H](C)CC)C(=O)N[C@H](C(=O)N[C@@H](CCC(=O)O)C(=O)N[C@@H](Cc1c[nH]c2ccccc12)C(=O)N[C@@H](CC(C)C)C(=O)N[C@@H](CCCNC(=N)N)C(=O)N[C@@H](CCCCN)C(=O)N[C@@H](CCCCN)C(=O)N[C@@H](CC(C)C)C(=O)N[C@@H](CCC(N)=O)C(=O)N[C@@H](CC(=O)O)C(=O)N[C@H](C(N)=O)C(C)C)C(C)C

What was measured:
wild-type human PTHR [1] = biological target: T1, wild-type human PTHR (human, UniProt Q03431 27-593); test: competition binding, HKRK-B7 cells, 125I-PTH(1-34) tracer
T1 construct: whole, on cells; also called PTHR-WT; intact PTHR
T1 sequence (looked up): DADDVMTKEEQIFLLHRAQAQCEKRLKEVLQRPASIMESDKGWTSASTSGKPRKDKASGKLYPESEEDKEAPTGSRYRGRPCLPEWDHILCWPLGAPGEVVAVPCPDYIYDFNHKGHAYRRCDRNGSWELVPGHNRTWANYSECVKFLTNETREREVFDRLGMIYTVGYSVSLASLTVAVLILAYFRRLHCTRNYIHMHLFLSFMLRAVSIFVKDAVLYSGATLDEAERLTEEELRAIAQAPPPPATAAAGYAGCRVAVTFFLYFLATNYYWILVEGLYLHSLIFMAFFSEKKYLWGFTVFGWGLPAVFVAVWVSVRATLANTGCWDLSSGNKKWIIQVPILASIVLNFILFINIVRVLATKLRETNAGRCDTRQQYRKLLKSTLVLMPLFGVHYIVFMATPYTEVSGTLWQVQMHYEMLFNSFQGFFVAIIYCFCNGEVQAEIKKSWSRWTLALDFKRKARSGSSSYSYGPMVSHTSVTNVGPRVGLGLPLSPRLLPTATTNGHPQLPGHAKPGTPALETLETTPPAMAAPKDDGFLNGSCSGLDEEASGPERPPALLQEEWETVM
Procedure: Receptor binding—Binding to the wild-type human PTHR in intact HKRK-B7 cells and ROS 17/2.8 cells was assessed using ¹²⁵I-PTH(1-34) as a tracer radioligand, as described (Shimizu, M., (2001) Endocrinology 142:3068-3074). In brief, the cells in 24-well plates (about 500,000 cells per well) were incubated in binding buffer containing radioligand (about 100,000 cpm per well) with or without unlabeled peptide ligand (3×10⁻⁹ to 1×10⁻⁵ M) for four hours at 15° C. The binding mixture was then removed by aspiration, the cells were rinsed three times with binding buffer, lysed in 1 M NaOH, and the entire lysate was counted for gamma-irradiation in a gamma counter. Binding to PTHR-delNt in COS-7 cell membranes was assessed in 96-well, vacuum filtration plates (Multiscreen-Durapore HV, […], Millipore Corp., Millford, Mass.) using ¹²⁵I-[Aib^{1,3},M]PTH(1-15)NH₂ as a tracer radioligand, as described (Dean, T., (2006) Mol Endocrinol 20:931-942). In brief, cell membranes (20 μg/well) were incubated in membrane binding buffer containing radioligand (30,000 cpm/well) with or without unlabeled peptide ligand (3×10⁻⁹ to 1×10⁻⁵ M) for 90 minutes at 21° C. The plates were then subject to rapid vacuum filtration, the filters were washed once with buffer, detached from the plate and counted for gamma-irradiation in a gamma counter. Non-specific binding was defined as the binding observed in the presence of 1×10⁻⁶ M PTH(1-31)NH₂ for HKRK-B7 and ROS 17/2.8 cells, and 1×10⁻⁶ M [Aib^{1,3},M]PTH(1-15)NH₂ for PTHR-delNt. Specifically bound radioactivity was calculated as a percentage of the radioactivity specifically bound in the absence of competing ligand.
Alanine-Scan of the PTH(17-31) domain—Each residue in the (17-31) region of PTH(1-31)NH₂ was individually replaced with alanine and the effects of the substitutions on binding to the intact human PTHR stably expressed in HKRK-B7 cells was assessed. Competition binding studies were performed using whole cells and ¹²⁵I-PTH(1-34) (¹²⁵I-[Nle^{8,21},Tyr³⁴]ratPTH(1-34)NH₂) as a tracer radioligand.

PTHR-delNt (human) = PTHR-delNt (human) (UniProt Q03431); test: competition binding, COS-7 membranes, 125I-[Aib1,3,M]PTH(1-15) tracer
wild-type human PTHR [2] = biological target: T1, wild-type human PTHR; test: competition binding, HKRK-B7 cells, 125I-PTH(1-34) tracer; remark: listed apart in the source

Binder	IC50 (wild-type human PTHR [1])	IC50 (PTHR-delNt (human))	fold difference of IC50 from PTH(1-31)NH2 (PTHR-delNt (human))	fold reduction in binding affinity vs PTH(1-31)NH2 (wild-type human PTHR [2])	fold reduction in binding affinity vs PTH(1-31)NH2 (PTHR-delNt (human))	fold enhancement in binding affinity vs PTH(1-31)NH2 (wild-type human PTHR [2])
B1	15.4 µM	10.7 µM	< 4 fold	~200 fold		
SVSEIQLMHNLGKHLNSMEXVEWLRKKLQDV (citrulline (Cit) at 20; C-terminal amide) [PTH(1-31)NH2 Arg^20→Cit]	11.9 µM	10.6 µM	< 4 fold	~200 fold		
SVSEIQLMHNLGKHLNSMEQVEWLRKKLQDV-NH2 [PTH(1-31)NH2 Arg^20→Gln]	> 10 µM	10.3 µM	< 4 fold			
SVSEIQLMHNLGKHLNSMEEVEWLRKKLQDV-NH2 [PTH(1-31)NH2 Arg^20→Glu]	> 10 µM	14.7 µM			4 fold	
SVSEIQLMHNLGKHLNSMRRVAWLRKKLQDV-NH2 [PTH(1-31)NH2 Glu^19,22→Arg,Ala]	0.054 µM	0.36 µM				
SVSEIQLMHNLGKHLNSMARVAWLRKKLQDV-NH2 [PTH(1-31)NH2 Glu^19,22→Ala,Ala]	0.049 µM	0.619 µM				
SVSEIQLMHNLGKHLNSMRRVEWLRKKLQDV-NH2 [PTH(1-31)NH2 Glu^19→Arg]	0.042 µM	1.23 µM				≤ 2 fold
SVSEIQLMHNLGKHLNSMEKVEWLRKKLQDV-NH2 [PTH(1-31)NH2 Arg^20→Lys]	> 10 µM	7.11 µM	< 4 fold			
